Assay results reported in patent publication US20150037339A1 (Regeneron, published 2015).

T1: Activin A (human, UniProt P08476 311-426)
T1 sequence: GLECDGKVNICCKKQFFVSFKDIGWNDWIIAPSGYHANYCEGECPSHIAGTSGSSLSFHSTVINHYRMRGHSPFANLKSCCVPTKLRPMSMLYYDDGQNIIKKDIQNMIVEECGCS

T2: Activin AB (human, UniProt P08476 311-426; P09529 293-407)
T2 chain 1: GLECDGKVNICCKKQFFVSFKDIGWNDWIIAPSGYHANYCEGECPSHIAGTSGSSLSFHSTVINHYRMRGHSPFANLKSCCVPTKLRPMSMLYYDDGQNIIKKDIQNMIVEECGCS
T2 chain 2: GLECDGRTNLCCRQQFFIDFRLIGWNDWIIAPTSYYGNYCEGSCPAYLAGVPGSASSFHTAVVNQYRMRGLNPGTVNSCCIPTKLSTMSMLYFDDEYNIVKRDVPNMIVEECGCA

T3: Activin AC (human, UniProt P55103 237-352)
T3 sequence 1: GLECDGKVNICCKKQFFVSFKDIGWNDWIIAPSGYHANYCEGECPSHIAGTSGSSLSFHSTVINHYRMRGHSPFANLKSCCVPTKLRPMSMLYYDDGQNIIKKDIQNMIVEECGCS
T3 sequence 2: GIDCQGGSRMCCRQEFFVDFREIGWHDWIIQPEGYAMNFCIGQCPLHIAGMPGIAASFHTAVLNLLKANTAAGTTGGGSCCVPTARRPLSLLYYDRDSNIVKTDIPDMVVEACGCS

T4: Activin A (human, UniProt P08476 311-426)
T4 construct: Homodimer of two βA subunits; bought from R&D Systems (#338-AC); also called inhibin-βA dimer; human Activin A
T4 sequence: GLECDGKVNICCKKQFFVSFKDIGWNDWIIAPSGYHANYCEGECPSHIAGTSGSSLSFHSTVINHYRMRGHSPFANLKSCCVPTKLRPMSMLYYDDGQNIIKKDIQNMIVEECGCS


Experiments:
Activin A [1] = molecular target: T1, Activin A; test: cell-based or functional assay
Activin AB [2] = molecular target: T2, Activin AB; test: cell-based or functional assay
Activin AC [3] = molecular target: T3, Activin AC; test: cell-based or functional assay
Activin AB [4] = molecular target: T2, Activin AB; test: SPR (Biacore), mAb captured on anti-Fc, Activin AB injected, 25 C
Description: (§1) Antibody-antigen association was monitored for 240 seconds while dissociation in buffer was monitored for 600 seconds. Kinetic association and dissociation rate constants were determined by processing and fitting the data using Scrubber software version 2.0c. Binding equilibrium dissociation constants (KD) and dissociative half-lives (t_{1/2}) were then calculated from the kinetic rate constants as: KD (M)=kd/kₐ and t_{1/2} (min)=[ln 2/(60*kd)]. (NB=no binding observed under the conditions used; NT=not tested).

Activin AB [5] = molecular target: T2, Activin AB; test: SPR (Biacore), mAb captured on anti-Fc, Activin AB injected, 37 C
Description: as §1

Activin AC [6] = molecular target: T3, Activin AC; test: SPR (Biacore), mAb captured on anti-Fc, Activin AC injected, 25 C
Description: as §1

Activin AC [7] = molecular target: T3, Activin AC; test: SPR (Biacore), mAb captured on anti-Fc, Activin AC injected, 37 C
Description: as §1

Activin A [8] = molecular target: T4, Activin A; test: SPR, captured mAb, 25C
Description: as §1

Activin A [9] = molecular target: T4, Activin A; test: SPR, captured mAb, 37C
Description: as §1

Activin A [10] = molecular target: T4, Activin A; test: SPR, captured mAb, 25C; no dissociation observed, kd fixed
Description: as §1

Activin A [11] = molecular target: T4, Activin A; test: SPR, captured mAb, 37C; no dissociation observed, kd fixed
Description: as §1

Row | IC50 [M], inhibition of 100 pM Activin A in A204/CAGAx12-Luc Smad2/3-luciferase bioassay (Activin A [1]) [M] | IC50 [M], inhibition of 30 pM Activin AB in A204/CAGAx12-Luc Smad2/3-luciferase bioassay (Activin AB [2]) [M] | IC50 [M], inhibition of 4 nM Activin AC in A204/CAGAx12-Luc Smad2/3-luciferase bioassay (Activin AC [3]) [M] | 50 nM Ag Bound (RU) (Activin AB [4]) | Kd (Activin AB [4]) [nM] | koff (Activin AB [4]) [s⁻¹] | kon (Activin AB [4]) [M⁻¹ s⁻¹] | t1/2 (Activin AB [4]) [min] | 50 nM Ag Bound (RU) (Activin AB [5]) | Kd (Activin AB [5]) [nM] | Activin A-20 nM (RU) (Activin A [8]) | Kd (Activin A [8]) [nM] | kon (Activin A [8]) [M⁻¹ s⁻¹] | t1/2 (Activin A [8]) [min] | Activin A-20 nM (RU) (Activin A [9]) | Kd (Activin A [9]) [pM] | kon (Activin A [9]) [M⁻¹ s⁻¹] | t1/2 (Activin A [9]) [min] | koff (Activin A [10]) [s⁻¹] | koff (Activin A [11]) [s⁻¹] | Binder | further results
1 | 1.1e-10 | 8e-10 | 2.8e-09 | 38.3 | 0.568 | 0.00227 | 4e+06 | 5.1 | 44.4 | 1.1 | – | – | – | – | – | – | – | – | – | – | H4H10432P2 (antibody, human IgG4, V domains shown) VH: EVQLVESGGGLVQPGRSLTLSCAVSGFTFDDHAMHWVRQAPGKGLEWVSGISWNSVSIGYADSVKGRFTISRDNAKTSLYLQMNSLRVDDTALYYCVQDLNDILTGYPLFDFWGQGTLVTVSS VL: not shown | koff (Activin AB [5]): 0.00592 s⁻¹; kon (Activin AB [5]): 5.4e+06 M⁻¹ s⁻¹; t1/2 (Activin AB [5]): 2 min; 50 nM Ag Bound (RU) (Activin AC [6]): 34.9 RU; Kd (Activin AC [6]): 2.98 nM; koff (Activin AC [6]): 0.00187 s⁻¹; kon (Activin AC [6]): 629000 M⁻¹ s⁻¹; t1/2 (Activin AC [6]): 6.2 min; 50 nM Ag Bound (RU) (Activin AC [7]): 34.6 RU; Kd (Activin AC [7]): 12.5 nM; koff (Activin AC [7]): 0.00902 s⁻¹; kon (Activin AC [7]): 722000 M⁻¹ s⁻¹; t1/2 (Activin AC [7]): 1.3 min
2 | – | – | – | – | – | – | – | – | – | – | 43 | ≤ 0.0208 | 2.4e+06 | ≥ 231 | 36 | ≤ 11.5 | 4.33e+06 | ≥ 231 | ≤ 5e-05 | ≤ 5e-05 | H4H10445P2 (antibody, human IgG4, V domains shown) VH: QVQLQESGPGLVKPSETLSLICSVSGGSFSSHFWSWIRQPPGKGLEWIGYVLYSGGTNYNPSLKSRVTISVDTSKNQFFLKLSSVTAADTADYYCARAISGITFGGIIVPGSFDIWGQGTMVTVSS VL: not shown | –
3 | – | – | – | – | – | – | – | – | – | – | 64 | ≤ 0.0105 | 4.76e+06 | ≥ 231 | 49 | ≤ 6.36 | 7.86e+06 | ≥ 231 | ≤ 5e-05 | ≤ 5e-05 | H4H10448P2 (antibody, human IgG4, V domains shown) VH: QVQLQESGPGLVKPSETLSLTCTVSGGTFSSHFWSWIRQPPGKGLEWIGYIFYTGGTNHNPSLKSRVTISIDTSKNQFSLKLTSVTAADTAVYYCARARSGITFGGVIVPGSFDIWGQGTMVTVSS VL: not shown | –
4 | – | – | – | – | – | – | – | – | – | – | 43 | ≤ 0.0212 | 2.36e+06 | ≥ 231 | 36 | ≤ 10.7 | 4.69e+06 | ≥ 231 | ≤ 5e-05 | ≤ 5e-05 | H4H10447P2 (antibody, human IgG4, V domains shown) VH: QVQLQESGPGLVKPSETLSLTCSVSGGSFSSHFWSWIRQPPGKGLEWIGYIHYSGGTNYNPSLKSRVTISVDTSKNQFSLKLTSVTAADTADYYCARAISGITFGGMIVPGSFDVWGEGTMVTVSS VL: not shown | –
5 | – | – | – | – | – | – | – | – | – | – | 55 | ≤ 0.0107 | 4.69e+06 | ≥ 231 | 43 | ≤ 6.3 | 7.94e+06 | ≥ 231 | ≤ 5e-05 | ≤ 5e-05 | H4H10452P2 (antibody, human IgG4, V domains shown) VH: QVQLQESGPGLVKPSETLSLTCTVSGGSFSSHFWNWIRQSPGRGLEWIGYIYYSGGTNYNPSFKSRVTMSVDTSKNQFSLKLSSVTAADTAVFYCARARSGITFGGVLVPGSFDIWGQGTMVTVSS VL: not shown | –
6 | 3.9e-11 | 2.3e-09 | 3.4e-09 | 34.7 | 0.556 | 0.00209 | 3.76e+06 | 5.5 | 34.5 | 0.88 | – | – | – | – | – | – | – | – | – | – | H4H10468P2 (antibody, human IgG4, V domains shown) VH: QVQLQESGPGLVKPSETLSLTCTVSGGSFSSHFWSWIRQPPGKGLEWIGYIYYSGGTHYNPSLESRVTISVDTSKNQFSLKLNSVTAADTAVYYCARARSGITFGGLIVPGSFDIWGQGTMVTVSS VL: not shown | koff (Activin AB [5]): 0.00443 s⁻¹; kon (Activin AB [5]): 5.03e+06 M⁻¹ s⁻¹; t1/2 (Activin AB [5]): 2.6 min; 50 nM Ag Bound (RU) (Activin AC [6]): 17.2 RU; Kd (Activin AC [6]): 7.41 nM; koff (Activin AC [6]): 0.00592 s⁻¹; kon (Activin AC [6]): 798000 M⁻¹ s⁻¹; t1/2 (Activin AC [6]): 2 min; 50 nM Ag Bound (RU) (Activin AC [7]): 10.7 RU; Kd (Activin AC [7]): 17.3 nM; koff (Activin AC [7]): 0.0124 s⁻¹; kon (Activin AC [7]): 719000 M⁻¹ s⁻¹; t1/2 (Activin AC [7]): 0.9 min
